Test results taken from patent US20200270335A1 (Biogen, published 2020).

Legend:
[1] = molecular target: T1, human LRP6 on huLRP6-expressing BaF3 cells (human, UniProt O75581 20-1613); test: FACS LRP6 binding assay, competition with anti-LRP6 antibody (FIG. 50)
T1 construct: whole, on cells; also called Lipoprotein receptor like protein 6

[2] = molecular target: LRP6 of Super TopFlash (STF, HEK293) cells (UniProt O75581 20-1613, limits assumed); test: cell-based or functional assay
Sequence of LRP6 of Super TopFlash (STF, HEK293) cells (O75581 20-1613 limits assumed): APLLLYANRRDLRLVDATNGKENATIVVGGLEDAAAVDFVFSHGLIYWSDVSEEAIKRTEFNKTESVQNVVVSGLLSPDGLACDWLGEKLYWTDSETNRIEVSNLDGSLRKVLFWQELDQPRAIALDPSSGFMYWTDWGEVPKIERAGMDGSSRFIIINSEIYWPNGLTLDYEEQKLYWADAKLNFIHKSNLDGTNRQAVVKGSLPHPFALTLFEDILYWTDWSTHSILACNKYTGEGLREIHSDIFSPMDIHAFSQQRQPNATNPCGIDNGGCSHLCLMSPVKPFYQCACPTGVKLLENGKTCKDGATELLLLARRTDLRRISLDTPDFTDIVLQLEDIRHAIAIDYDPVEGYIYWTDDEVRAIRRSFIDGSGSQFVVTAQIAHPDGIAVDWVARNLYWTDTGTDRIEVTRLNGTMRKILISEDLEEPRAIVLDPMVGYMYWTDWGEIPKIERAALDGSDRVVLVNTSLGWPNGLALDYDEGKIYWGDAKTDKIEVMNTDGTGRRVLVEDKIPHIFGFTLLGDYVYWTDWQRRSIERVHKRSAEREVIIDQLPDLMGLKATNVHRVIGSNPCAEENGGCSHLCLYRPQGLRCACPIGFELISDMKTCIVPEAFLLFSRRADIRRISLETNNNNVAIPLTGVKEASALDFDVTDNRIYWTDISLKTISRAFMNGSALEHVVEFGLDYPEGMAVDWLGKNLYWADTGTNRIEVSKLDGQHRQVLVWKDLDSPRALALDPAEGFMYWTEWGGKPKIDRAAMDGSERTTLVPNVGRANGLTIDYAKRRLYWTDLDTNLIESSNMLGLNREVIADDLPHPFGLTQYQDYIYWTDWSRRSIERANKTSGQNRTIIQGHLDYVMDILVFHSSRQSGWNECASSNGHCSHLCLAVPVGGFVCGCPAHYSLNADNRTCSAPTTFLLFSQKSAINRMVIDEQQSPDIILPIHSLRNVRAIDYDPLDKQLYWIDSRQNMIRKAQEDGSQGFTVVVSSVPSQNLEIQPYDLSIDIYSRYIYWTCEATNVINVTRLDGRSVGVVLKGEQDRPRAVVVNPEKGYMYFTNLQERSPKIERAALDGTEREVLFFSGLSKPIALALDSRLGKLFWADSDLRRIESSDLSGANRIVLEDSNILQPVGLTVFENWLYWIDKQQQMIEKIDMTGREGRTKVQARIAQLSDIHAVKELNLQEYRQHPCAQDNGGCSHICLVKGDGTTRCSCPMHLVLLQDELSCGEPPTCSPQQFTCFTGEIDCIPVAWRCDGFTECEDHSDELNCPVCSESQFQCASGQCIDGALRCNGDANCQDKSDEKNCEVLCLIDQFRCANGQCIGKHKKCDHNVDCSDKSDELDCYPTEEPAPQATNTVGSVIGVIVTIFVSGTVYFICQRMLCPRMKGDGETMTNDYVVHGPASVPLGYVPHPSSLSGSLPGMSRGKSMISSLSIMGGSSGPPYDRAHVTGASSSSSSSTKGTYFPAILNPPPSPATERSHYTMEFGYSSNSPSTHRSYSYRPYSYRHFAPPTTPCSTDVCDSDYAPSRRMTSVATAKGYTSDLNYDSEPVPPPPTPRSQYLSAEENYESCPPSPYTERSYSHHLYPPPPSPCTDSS

T1 sequence (O75581 20-1613): as the sequence (O75581 20-1613 limits assumed) above

| Binder | IC50 [1] | IC50 in the Wnt signaling Super Top Flash (STF) activity assay [2] |
| --- | --- | --- |
| untagged murine DKK2-C2 from E. coli (ligand, also called E. coli DKK2 C2; non-PEGylated untagged DKK2-C2) GSMPHIKGHEGDPCLRSSDCIDGFCCARHFWTKICKPVLHQGEVCTKQRKKGSHGLEIFQRCDCAKGLSCKVWKDATYSSKARLHVCQKI | 20 nM | ~20 nM |
| PEGylated untagged murine DKK2-C2 from E. coli (ligand, monoPEGylated with 20k-PEG-2-methyl proprionaldehyde and sodium cyanoborohydride; site not stated, also called monoPEGylated DKK2 C2; PEGylated version of DKK2 C2) GSMPHIKGHEGDPCLRSSDCIDGFCCARHFWTKICKPVLHQGEVCTKQRKKGSHGLEIFQRCDCAKGLSCKVWKDATYSSKARLHVCQKI | 326 nM |  |
